# According to patent publication EP4671273A1 (Anaveon AG, dated 2025):
# Experiments:
# [1] = biological target: T1, human PD-1 (#PD1-H82E4, AcroBiosystems) (human, UniProt Q15116 25-167); experiment: SPR, PD-1 on captured IgG1
# T1 construct: bought
# [2] = biological target: T2, cynomolgus PD-1 (#PD1-C52H5, AcroBiosystems) (cynomolgus monkey, UniProt B0LAJ3 25-170); experiment: SPR, PD-1 on captured IgG1
# T2 construct: bought; also called cynomolgus monkey PD-1; not shown: the vendor's tag on the recombinant protein (AcroBiosystems #PD1-C52H5)
# [3] = biological target: human IL-21 receptor (IL-21R) on cells (human, UniProt Q9HBE5 20-538; P31785 23-369); experiment: cell-based or functional assay
# human IL-21 receptor (IL-21R) on cells, sequence (Q9HBE5 20-538, chain 1 of 2): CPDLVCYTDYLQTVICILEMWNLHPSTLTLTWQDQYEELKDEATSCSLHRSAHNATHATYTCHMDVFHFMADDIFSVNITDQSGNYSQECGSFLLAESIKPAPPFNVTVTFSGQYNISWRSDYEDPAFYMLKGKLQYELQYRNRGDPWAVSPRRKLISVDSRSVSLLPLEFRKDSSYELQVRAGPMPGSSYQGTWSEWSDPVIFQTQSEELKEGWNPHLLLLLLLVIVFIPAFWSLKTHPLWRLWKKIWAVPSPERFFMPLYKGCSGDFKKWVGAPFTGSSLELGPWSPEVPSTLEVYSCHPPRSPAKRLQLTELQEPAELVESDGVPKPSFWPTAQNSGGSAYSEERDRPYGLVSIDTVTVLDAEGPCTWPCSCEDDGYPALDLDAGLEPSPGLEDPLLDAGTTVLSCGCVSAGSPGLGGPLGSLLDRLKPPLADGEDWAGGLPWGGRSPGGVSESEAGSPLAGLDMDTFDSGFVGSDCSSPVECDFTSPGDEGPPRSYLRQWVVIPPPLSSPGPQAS
# human IL-21 receptor (IL-21R) on cells, sequence (P31785 23-369, chain 2 of 2): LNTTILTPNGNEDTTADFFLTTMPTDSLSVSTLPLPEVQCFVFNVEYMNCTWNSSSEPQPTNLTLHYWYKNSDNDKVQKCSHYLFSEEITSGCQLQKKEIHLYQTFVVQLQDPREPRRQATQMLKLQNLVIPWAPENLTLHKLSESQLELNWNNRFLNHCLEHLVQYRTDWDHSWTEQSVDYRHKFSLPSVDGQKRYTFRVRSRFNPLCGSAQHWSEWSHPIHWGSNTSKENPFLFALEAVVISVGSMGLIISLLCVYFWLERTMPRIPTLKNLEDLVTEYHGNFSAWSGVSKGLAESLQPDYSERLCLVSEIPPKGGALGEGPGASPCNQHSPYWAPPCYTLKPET
# T2 sequence (B0LAJ3 entry or part of it limits assumed, form in doubt): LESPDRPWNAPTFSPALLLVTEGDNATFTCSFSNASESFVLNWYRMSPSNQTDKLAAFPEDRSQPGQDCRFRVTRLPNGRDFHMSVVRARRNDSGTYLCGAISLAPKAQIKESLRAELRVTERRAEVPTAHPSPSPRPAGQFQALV
# T1 sequence (Q15116 25-167 limits assumed): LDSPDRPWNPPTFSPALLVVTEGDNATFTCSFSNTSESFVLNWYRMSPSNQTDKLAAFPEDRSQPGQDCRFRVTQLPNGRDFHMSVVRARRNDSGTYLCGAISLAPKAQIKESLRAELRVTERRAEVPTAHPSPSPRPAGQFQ
Kd [1] [pM],koff [1] [s⁻¹],kon [1] [M⁻¹ s⁻¹],Kd [2] [pM],koff [2] [s⁻¹],kon [2] [M⁻¹ s⁻¹],"EC50B, pSTAT3+ Jurkat PD-1 cells, PD-1 blocked [3] [nM]","EC50NB, pSTAT3+ Jurkat PD-1 cells [3] [nM]",Binder
631,9.2e-05,146000,959,0.00029,302000,–,–,"JZW468 (antibody, human IgG1, V domains shown, human IgG1) VH: EVQLLESGGGLVQPGGSLRLSCAASGFTFSINAMTWVRQAPGKGLEWVSTISGSGFSTYYADSLKGRFTISRDNSKNTLYLQMNSLRAEDTAVYYCAKEVYGDYWGQGTLVTVSS VL: RSVLTQPPSASGTPGQRVSISCSGASSNIGSQSVFWYQQLPGTAPKLLIYSNNQRPSGVPDRFSGSKSGTSASLAISGLRSEDEADYYCAAWDDQLSIWVFGGGTKLTVL"
76.7,0.000199,2.6e+06,1140,0.000301,263000,–,–,"SSR010 (antibody, human IgG1, V domains shown, human IgG1) VH: EVQLLESGGGLVQPGGSLRLSCAASGFTFSINAMTWVRQAPGKGLEWVSTISGSGFSTYYADSLKGRFTISRDNSKNTLYLQMNSLRAEDTAVYYCAKEVYGDYWGQGTLVTVSS VL: RSVLTQPPSASGTPGQRVSISCSGASSNVGSQSVFWYQQLPGTAPKLLIYSNNQRPSGVPDRFSGSKSGTSASLAISGLRSEDEADYYCAAWDDSLSIWVFGGGTKLTVL"
229,9.82e-05,429000,949,0.00015,158000,–,–,"NWL270 (antibody, human IgG1, V domains shown, human IgG1) VH: EVQLLESGGGLVQPGGSLRLSCAASGFTFSINAMTWVRQAPGKGLEWVSTISGSGFSTYYADSLKGRFTISRDNSKNTLYLQMNSLRAEDTAVYYCAKEVYGDYWGQGTLVTVSS VL: RSVLTQPPSASGTPGQRVSISCSGASSNIGSQSVFWYQQLPGTAPKLLIYSNNQRPSGVPDRFSGSKSGTSASLAISGLRSEDEADYYCAAWDDSLSNWVFGGGTKLTVL"
183,0.000305,1.67e+06,2290,0.000644,281000,–,–,"KWH245 (antibody, human IgG1, V domains shown, human IgG1) VH: EVQLLESGGGLVQPGGSLRLSCAASGFTFSINAMTWVRQAPGKGLEWVSTISGSGFSTYYADSLKGRFTISRDNSKNTLYLQMNSLRAEDTAVYYCAKEVYGDYWGQGTLVTVSS VL: RSVLTQPPSASGTPGQRVSISCSGASSNIGSQSVFTYQQLPGTAPKLLIYSNNQRPSGVPDRFSGSKSGTSASLAISGLRSEDEADYYCAAWDDSLSIWVFGGGTKLTVL"
528,7.59e-05,144000,597,0.000139,233000,–,–,"KYC847 (antibody, human IgG1, V domains shown, human IgG1) VH: EVQLLESGGGLVQPGGSLRLSCAASGFTFSINAMTWVRQAPGKGLEWVSTISGSGFSTYYADSLKGRFTISRDNSKNTLYLQMNSLRAEDTAVYYCAKEVYGDYWGQGTLVTVSS VL: RSVLTQPPSASGTPGQRVSISCSGASSNIGSQSVFWYQQLPGTAPKLLIYSNNQRPSGVPDRFSGSKSGTSASLAISGLRSEDEADYYCAAWDDSLTIWVFGGGTKLTVL"
586,7.97e-05,136000,1270,0.000296,233000,–,–,"KOW427 (antibody, human IgG1, V domains shown, human IgG1) VH: EVQLLESGGGLVQPGGSLRLSCAASGFTFSINAMTWVRQAPGKGLEWVSTISGSGFSTYYADSLKGRFTISRDNSKNTLYLQMNSLRAEDTAVYYCAKEVYGDYWGQGTLVTVSS VL: RSVLTQPPSASGTPGQRVSISCSGASSNIGSQSVFWYQQLPGTAPKLGIYSNNQRPSGVPDRFSGSKSGTSASLAISGLRSEDEADYYCAAWDDSLSIWVFGGGTKLTVL"
–,–,–,–,–,–,0.234,0.129,"EFY288 (bispecific antibody, human IgG1, kappa, lambda, L234A L235A) heavy 1: EVQLLESGGGLVQPGGSLRLSCAASGFTFSINAMTWVRQAPGKGLEWVSTISGSGFSTYYADSLKGRFTISRDNSKNTLYLQMNSLRAEDTAVYYCAKEVYGDYWGQGTLVTVSSASTKGPSVFPLAPSSKSTSGGTAALGCLVKDYFPEPVTVSWNSGALTSGVHTFPAVLQSSGLYSLSSVVTVPSSSLGTQTYICNVNHKPSNTKVDKRVEPKSCDKTHTCPPCPAPEAAGGPSVFLFPPKPKDTLMISRTPEVTCVVVDVSHEDPEVKFNWYVDGVEVHNAKTKPREEQYNSTYRVVSVLTVLHQDWLNGKEYKCKVSNKALAAPIEKTISKAKGQPREPQVCTLPPSREEMTKNQVSLSCAVKGFYPSDIAVEWESNGQPENNYKTTPPVLDSDGSFFLVSKLTVDKSRWQQGNVFSCSVMHEALHNHYTQKSLSLSPGK light 1: not shown heavy 2: QVQLQESGPGLVKPSETLSLTCTVSGGSISSDYWGWIRQPPGKGLEWIGYISYRGSTNYNPSLKSRVTISVDTSRNQFSLKLSSVTAADTAVYYCARSAGVTDFDAWGQGTLVTVSSASTKGPSVFPLAPSSKSTSGGTAALGCLVKDYFPEPVTVSWNSGALTSGVHTFPAVLQSSGLYSLSSVVTVPSSSLGTQTYICNVNHKPSNTKVDKRVEPKSCDKTHTCPPCPAPEAAGGPSVFLFPPKPKDTLMISRTPEVTCVVVDVSHEDPEVKFNWYVDGVEVHNAKTKPREEQYNSTYRVVSVLTVLHQDWLNGKEYKCKVSNKALAAPIEKTISKAKGQPREPQVYTLPPCREEMTKNQVSLWCLVKGFYPSDIAVEWESNGQPENNYKTTPPVLDSDGSFFLYSKLTVDKSRWQQGNVFSCSVMHEALHNHYTQKSLSLSPGK light 2: not shown"
–,–,–,–,–,–,2.16,0.583,"CHU368 (bispecific antibody, human IgG1, kappa, lambda, L234A L235A) heavy 1: EVQLLESGGGLVQPGGSLRLSCAASGFTFSINAMTWVRQAPGKGLEWVSTISGSGFSTYYADSLKGRFTISRDNSKNTLYLQMNSLRAEDTAVYYCAKEVYGDYWGQGTLVTVSSASTKGPSVFPLAPSSKSTSGGTAALGCLVKDYFPEPVTVSWNSGALTSGVHTFPAVLQSSGLYSLSSVVTVPSSSLGTQTYICNVNHKPSNTKVDKRVEPKSCDKTHTCPPCPAPEAAGGPSVFLFPPKPKDTLMISRTPEVTCVVVDVSHEDPEVKFNWYVDGVEVHNAKTKPREEQYNSTYRVVSVLTVLHQDWLNGKEYKCKVSNKALAAPIEKTISKAKGQPREPQVCTLPPSREEMTKNQVSLSCAVKGFYPSDIAVEWESNGQPENNYKTTPPVLDSDGSFFLVSKLTVDKSRWQQGNVFSCSVMHEALHNHYTQKSLSLSPGK light 1: not shown heavy 2: QVQLQESGPGLVKPSETLSLTCTVSGGSISSDYWGWIRQPPGKGLEWIGYISYRGSTNYNPSLKSRVTISVDTSRNQFSLKLSSVTAADTAVYYCARSAGVTDFDAWGQGTLVTVSSASTKGPSVFPLAPSSKSTSGGTAALGCLVKDYFPEPVTVSWNSGALTSGVHTFPAVLQSSGLYSLSSVVTVPSSSLGTQTYICNVNHKPSNTKVDKRVEPKSCDKTHTCPPCPAPEAAGGPSVFLFPPKPKDTLMISRTPEVTCVVVDVSHEDPEVKFNWYVDGVEVHNAKTKPREEQYNSTYRVVSVLTVLHQDWLNGKEYKCKVSNKALAAPIEKTISKAKGQPREPQVYTLPPCREEMTKNQVSLWCLVKGFYPSDIAVEWESNGQPENNYKTTPPVLDSDGSFFLYSKLTVDKSRWQQGNVFSCSVMHEALHNHYTQKSLSLSPGK light 2: not shown"
–,–,–,–,–,–,2.13,0.257,"GWM570 (bispecific antibody, human IgG1, kappa, lambda, L234A L235A) heavy 1: EVQLLESGGGLVQPGGSLRLSCAASGFTFSINAMTWVRQAPGKGLEWVSTISGSGFSTYYADSLKGRFTISRDNSKNTLYLQMNSLRAEDTAVYYCAKEVYGDYWGQGTLVTVSSASTKGPSVFPLAPSSKSTSGGTAALGCLVKDYFPEPVTVSWNSGALTSGVHTFPAVLQSSGLYSLSSVVTVPSSSLGTQTYICNVNHKPSNTKVDKRVEPKSCDKTHTCPPCPAPEAAGGPSVFLFPPKPKDTLMISRTPEVTCVVVDVSHEDPEVKFNWYVDGVEVHNAKTKPREEQYNSTYRVVSVLTVLHQDWLNGKEYKCKVSNKALAAPIEKTISKAKGQPREPQVCTLPPSREEMTKNQVSLSCAVKGFYPSDIAVEWESNGQPENNYKTTPPVLDSDGSFFLVSKLTVDKSRWQQGNVFSCSVMHEALHNHYTQKSLSLSPGK light 1: not shown heavy 2: QVQLQESGPGLVKPSETLSLTCTVSGGSISSDFWGWIRQPPGKGLEWIGYISSRGSTNYNPSLKRRVTISVDTSRNQFSLKLSSVTAADTAVYYCARSAGVTDFDFWGQGTLVTVSSASTKGPSVFPLAPSSKSTSGGTAALGCLVKDYFPEPVTVSWNSGALTSGVHTFPAVLQSSGLYSLSSVVTVPSSSLGTQTYICNVNHKPSNTKVDKRVEPKSCDKTHTCPPCPAPEAAGGPSVFLFPPKPKDTLMISRTPEVTCVVVDVSHEDPEVKFNWYVDGVEVHNAKTKPREEQYNSTYRVVSVLTVLHQDWLNGKEYKCKVSNKALAAPIEKTISKAKGQPREPQVYTLPPCREEMTKNQVSLWCLVKGFYPSDIAVEWESNGQPENNYKTTPPVLDSDGSFFLYSKLTVDKSRWQQGNVFSCSVMHEALHNHYTQKSLSLSPGK light 2: not shown"
–,–,–,–,–,–,1.84,0.413,"XOW683 (bispecific antibody, human IgG1, kappa, lambda, L234A L235A) heavy 1: EVQLLESGGGLVQPGGSLRLSCAASGFTFSINAMTWVRQAPGKGLEWVSTISGSGFSTYYADSLKGRFTISRDNSKNTLYLQMNSLRAEDTAVYYCAKEVYGDYWGQGTLVTVSSASTKGPSVFPLAPSSKSTSGGTAALGCLVKDYFPEPVTVSWNSGALTSGVHTFPAVLQSSGLYSLSSVVTVPSSSLGTQTYICNVNHKPSNTKVDKRVEPKSCDKTHTCPPCPAPEAAGGPSVFLFPPKPKDTLMISRTPEVTCVVVDVSHEDPEVKFNWYVDGVEVHNAKTKPREEQYNSTYRVVSVLTVLHQDWLNGKEYKCKVSNKALAAPIEKTISKAKGQPREPQVCTLPPSREEMTKNQVSLSCAVKGFYPSDIAVEWESNGQPENNYKTTPPVLDSDGSFFLVSKLTVDKSRWQQGNVFSCSVMHEALHNHYTQKSLSLSPGK light 1: not shown heavy 2: QVQLQESGPGLVKPSETLSLTCTVSGGSISSDYWGWIRQPPGKGLEWIGYISYSGSTNYNPSLKSRVTISVDTSRNQFSLKLSSVTAADTAVYYCARSAGVTDFDAWGQGTLVTVSSASTKGPSVFPLAPSSKSTSGGTAALGCLVKDYFPEPVTVSWNSGALTSGVHTFPAVLQSSGLYSLSSVVTVPSSSLGTQTYICNVNHKPSNTKVDKRVEPKSCDKTHTCPPCPAPEAAGGPSVFLFPPKPKDTLMISRTPEVTCVVVDVSHEDPEVKFNWYVDGVEVHNAKTKPREEQYNSTYRVVSVLTVLHQDWLNGKEYKCKVSNKALAAPIEKTISKAKGQPREPQVYTLPPCREEMTKNQVSLWCLVKGFYPSDIAVEWESNGQPENNYKTTPPVLDSDGSFFLYSKLTVDKSRWQQGNVFSCSVMHEALHNHYTQKSLSLSPGK light 2: not shown"
